Measured values from publication PMC7948448.

Molecular target: Bmh1 (UniProt P29311)
Assay: Strep-Bmh1 pull-down, stained SDS-PAGE
Settings: reference: unmodified Hst2

Substance | binding against the reference (sites S320) | binding against the reference (sites S324)
Hst2 (from UniProt P53686) Hst2 S320ph | gained | 
Hst2 (from UniProt P53686) Hst2 S324ph |  | gained
